B1: OcFLS1 (Albuca bracteata) (protein)
chain: MEVERVQAIASMTASLGTIPAEFIRSEHERPDITTYHGPVPDIPVVDLSATDRAGVTKAIAEAAQEWGIFQVVNHRVPIEAIKELQRVGKEFFELPQEEKEAYATVPDSGSFEGYGTRLQKDLEGKKAWVDYLFHNVWPQSKITYRFWPNNPPEYRKANEEYAKYLQGVVDEMLTSLSLGLGLESHVLKEAVGGDELEYLLKINYYPPCPRPDLALGVVAHTDMSAITILVPNEVPGLQVFKDDHWFDAKYIPNALIVHIGDQIEILSNGKYKSVLHRTTVNKEKARMSWPVFCSPPGEMIVGPLPQLVSDENSAKFKTKKYKDYSYCKINKLPQ
B2: OcFLS2 (Albuca bracteata) (protein)
chain: MEVERVQAIASMTASLGTIPAEFIRSEHERPDITTYHGPVPDIPVIDLSDTDRAAVAKAIADAAQEWGIFQVVNHGIPVEAIKELQRVGKGFFELPQEEKEAYATVPDSGSFEGYGTKLQKDLGGKKAWVDYLFHNVWPESKINYRFWPNNPPEYRKANEEYAKYLQEVVDEMLSSLSVGLGLEGHVLKEAVGGDELEYLLKINYYPPCPRPDLALGVVAHTDMSAITILVPNEVPGLQVFKDDHWFDAKYIPNALIVHIGDQIEILSNGKYKSVLHRTTVNKEKARMSWPVFCSPPGEMIVGPLPQLVSDENPAKFKTKKYKEYSYCKINKLPQ

What was measured:
Assay in all cases: HPLC, Lineweaver-Burk
Assay type in all cases: biochemical, Albuca bracteata
HPLC, Lineweaver-Burk [1] = substrate: O=C1C[C@@H](c2ccc(O)cc2)Oc2cc(O)cc(O)c21; conditions: F3H activity, apparent Km, 2-oxoglutarate, Fe2+, ascorbate, pH 6.0, 20 °C
Description: (§1) HPLC, Lineweaver-Burk on OcFLS1

HPLC, Lineweaver-Burk [2] = substrate: O=C1c2c(O)cc(O)cc2O[C@H](c2ccc(O)cc2)[C@H]1O; conditions: FLS activity, apparent Km, 2-oxoglutarate, Fe2+, ascorbate, pH 6.0, 20 °C
Description: as §1

HPLC, Lineweaver-Burk [3] = substrate: O=C1C[C@@H](c2ccc(O)cc2)Oc2cc(O)cc(O)c21; conditions: F3H activity, apparent Km, 2-oxoglutarate, Fe2+, ascorbate, pH 6.0, 20 °C; remark: listed apart in the source
Description: (§2) HPLC, Lineweaver-Burk on OcFLS2

HPLC, Lineweaver-Burk [4] = substrate: O=C1c2c(O)cc(O)cc2O[C@H](c2ccc(O)cc2)[C@H]1O; conditions: FLS activity, apparent Km, 2-oxoglutarate, Fe2+, ascorbate, pH 6.0, 20 °C; remark: listed apart in the source
Description: as §2

| Protein | Km (HPLC, Lineweaver-Burk [1]) | Vmax (HPLC, Lineweaver-Burk [1]) | Km (HPLC, Lineweaver-Burk [2]) | Vmax (HPLC, Lineweaver-Burk [2]) | Km (HPLC, Lineweaver-Burk [3]) | Vmax (HPLC, Lineweaver-Burk [3]) | Km (HPLC, Lineweaver-Burk [4]) | Vmax (HPLC, Lineweaver-Burk [4]) |
| --- | --- | --- | --- | --- | --- | --- | --- | --- |
| B1 | 37.57 ± 6.316 µM | 2.05 µM/min | 471.3 ± 179 µM | 12.9 µM/min | – | – | – | – |
| B2 | – | – | – | – | 110.5 ± 20.86 µM | 5.82 µM/min | 525.7 ± 198.4 µM | 15.1 µM/min |
